Here are results for 18 variants from FireProtDB (doi:10.1006/jmbi.1993.1508).

The labels stand for the following.
B1: Ribonuclease, P00648 (parent)
chain: MMKMEGIALKKRLSWISVCLLVLVSAAGMLFSTAAKTETSSHKAHTEAQVINTFDGVADYLQTYHKLPDNYITKSEAQALGWVASKGNLADVAPGKSIGGDIFSNREGKLPGKSGRTWREADINYTSGFRNSDRILYSSDWLIYKTTDHYQTFTKIR

The variants in this data set derive from B1. Particulars: Bacillus amyloliquefaciens; pH 6.3; 25 °C; Urea; Fluorescence; MES 50 mM; reversible: yes; structure 1BNI; whole UniProt chain shown.

For Q62I T63R K66R G112S K113A K155R, the “ddG of mutation (higher = less stable)” value is -2.98 kcal/mol, the denaturant m value came to 1.86 kcal/mol/M, the “denaturant midpoint (higher = more stable)” value (“denaturant midpoint” below) stood at 6.34 M and the unfolding free energy stood at 11.8 kcal/mol.
On to T63R, for which the “ddG of mutation (higher = less stable)” value was -0.78 kcal/mol, the denaturant m value was 1.98 kcal/mol/M, the “denaturant midpoint” value came out at 4.8 M and the unfolding free energy turned out to be 9.6 kcal/mol.
In the case of K113A, the “ddG of mutation (higher = less stable)” value was -0.98 kcal/mol, the denaturant m value was 2.09 kcal/mol/M, the “denaturant midpoint” value was found to be 4.7 M and the unfolding free energy is 9.8 kcal/mol.
For H65K, the “ddG of mutation (higher = less stable)” value stood at 0.92 kcal/mol, the denaturant m value amounted to 2 kcal/mol/M, the “denaturant midpoint” value worked out at 3.9 M and the unfolding free energy turned out to be 7.9 kcal/mol.
Take I135L: the “ddG of mutation (higher = less stable)” value is 0.02 kcal/mol, the denaturant m value is 1.98 kcal/mol/M, the “denaturant midpoint” value worked out at 4.4 M and the unfolding free energy was 8.8 kcal/mol.
For the variant Q62I, the “ddG of mutation (higher = less stable)” value is -1.38 kcal/mol, the denaturant m value came out at 2.02 kcal/mol/M, the “denaturant midpoint” value turned out to be 5 M and the unfolding free energy turned out to be 10.2 kcal/mol.
With K155R, the “ddG of mutation (higher = less stable)” value was -0.78 kcal/mol, the denaturant m value was found to be 1.91 kcal/mol/M, the “denaturant midpoint” value turned out to be 5 M and the unfolding free energy is 9.6 kcal/mol.
In the same order, the values of S132A are -0.28 kcal/mol, 2.02 kcal/mol/M, 4.51 M and 9.1 kcal/mol.
For the variant K109R, the “ddG of mutation (higher = less stable)” value came out at 0.02 kcal/mol, the denaturant m value is 2.04 kcal/mol/M, the “denaturant midpoint” value amounted to 4.3 M and the unfolding free energy amounted to 8.8 kcal/mol.
On to D91E, for which the “ddG of mutation (higher = less stable)” value came out at 0.32 kcal/mol, the denaturant m value was 1.84 kcal/mol/M, the “denaturant midpoint” value is 4.6 M and the unfolding free energy was determined as 8.5 kcal/mol.
As for T126V, the “ddG of mutation (higher = less stable)” value is -0.18 kcal/mol, the denaturant m value amounted to 1.91 kcal/mol/M, the “denaturant midpoint” value is 4.7 M and the unfolding free energy amounted to 9 kcal/mol.
On the same counts, the results for L136V are 0.32 kcal/mol, 1.92 kcal/mol/M, 4.4 M and 8.5 kcal/mol.
Regarding G112S, the “ddG of mutation (higher = less stable)” value was -0.98 kcal/mol, the denaturant m value was 2.03 kcal/mol/M, the “denaturant midpoint” value came to 4.8 M and the unfolding free energy worked out at 9.8 kcal/mol.
K66R: the “ddG of mutation (higher = less stable)” value was -0.88 kcal/mol, the denaturant m value was found to be 2.08 kcal/mol/M, the “denaturant midpoint” value was 4.6 M and the unfolding free energy is 9.7 kcal/mol.
For the variant Q78S, the “ddG of mutation (higher = less stable)” value was -0.28 kcal/mol, the denaturant m value is 2.05 kcal/mol/M, the “denaturant midpoint” value was found to be 4.4 M and the unfolding free energy came to 9.1 kcal/mol.
Take I102V: the “ddG of mutation (higher = less stable)” value was 0.32 kcal/mol, the denaturant m value was determined as 1.93 kcal/mol/M, the “denaturant midpoint” value was 4.4 M and the unfolding free energy is 8.5 kcal/mol.
On to Q62I T63R K66R, for which the “ddG of mutation (higher = less stable)” value is -1.98 kcal/mol, the denaturant m value was 2 kcal/mol/M, the “denaturant midpoint” value stood at 5.42 M and the unfolding free energy worked out at 10.8 kcal/mol.
With Q151A, the “ddG of mutation (higher = less stable)” value was 0.02 kcal/mol, the denaturant m value was determined as 1.98 kcal/mol/M, the “denaturant midpoint” value was found to be 4.4 M and the unfolding free energy turned out to be 8.8 kcal/mol.
